Biological target: AAV8 capsid (adeno-associated virus serotype 8) (adeno-associated virus 8, UniProt Q8JQF8)
Experiment: cryo-EM structure

B1: AAVX nanobody (CaptureSelect Biotin Anti-AAVX Conjugate; ligand of the POROS CaptureSelect AAVX affinity resin) (VHH)
VHH: QVQIQESGGGIVQAGGSLRLSCAASGRTHGMYAMGWFRQAPGKEREFVAVQDITASNTHYSSAVKGRFTLSRDNAKNTAYLQMNNLKPEDTAVYYCAAGPTLMSGSYNSARDYDYWGQGTQVTVSS
- stoichiometry N: 2 nanobodies per 5-fold
